Measurements as given in the nanobody polyreactivity screen of Harvey et al. (2022).

experiment: yeast display, Sf9 membrane polyspecificity reagent, FACS + sequencing; frameworks hold sequencing errors
Method in brief: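 In a synthetic yeast display library (Saccharomyces cerevisiae BJ5465), nanobody expression was induced with galactose for 36–48 hours. FACS gates were set low and high (top ~1%) using anti-HA fluorescence for expression and streptavidin fluorescence for binding of the Sf9 membrane reagent. Each polyreactivity label is drawn from the gate of origin.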

Row | Sequence | polyreactivity (PSR sort gate)
1 | QVQLVESGGGLVQAGGSLRLSCAASGRNFVAYTMGWSRQAPGKERELVAAIRIIGGSTYYADSVKGRFTISRDNAKNTVYLQMNSLKPVDTAVYFCDTPYAYPGTVQYAGYNYWGQGTQVTVSS | high polyreactivity
2 | QVQLVESGGGLVQAGGSLRLSCAASGRNFYGNAMGWYRQAPGKERELVAAISSGTSTNYADSVKGRFTISRDNAKNTVYLQMNSLKPEDTAVYYCAAGSYSRYLYSLYFDFDYWGQGTQVTVSS | low polyreactivity
3 | QVQLVESGGGLVQAGGSLRLSCAASGRNFYVYAMGWYRQAPGKEREFVASITVSGSSTYYADSVKGRFTISRDNAKNTVYLQMNSLKPEDTAVYYCNTDAVRSYVWWGTSLYDYWGQGTLVTVSS | low polyreactivity
4 | QVQLVESGGGLVQAGGSLRLSCAASGRNFYYNAMGWYRQAPGKEREFVAGISYGGTTTYYADSVKGRFTISRDNAKNTVYLLMNSLKPEDTAVYYCAAGYTWRQSWYPFDYWGQGTQVTVSS | high polyreactivity
5 | QVQLVESGGGLVQAGGSLRLSCAASGRNIWGYTMGWYRQAPGKERDLVAAIRFTSGSTYYADSVKGRFTISRDNAKNSVYLQMNSLKPEDTAVYYCATPYVQTGSGYTGVYWGQGTQVTVSS | high polyreactivity
6 | QVQLVESGGGLVQAGGSLRLSCAASGRNLQQYVMGWYRQAPGKERELVAAITRGGRTNYADSVKGRFTISRDYAKNTVYLLMNSLKQEDTAVYYCKTRYPSRVVAWLDYWGQGTQVNVSS | low polyreactivity
7 | QVQLVESGGGLVQAGGSLRLSCAASGRNYGNAMGWYRQAPGKERELVAAISAGGGRTYYADSVKGRFTISRDNAKNTVYLQMNSLKPEDTAVYYCAADTTLQAFIRYRPIGSYDSWGQGTQVTVSS | low polyreactivity
8 | QVQLVESGGGLVQAGGSLRLSCAASGRNYWVYAMGWYREAPGKERELVASIDSGSRTTYADSVKGRFTISRDNAKNTVYLQMISLKQEDTAVYYSATSSYTYSPRVWYRWRRDYWGQGTQVNVSS | high polyreactivity
9 | QVQLVESGGGLVQAGGSLRLSCAASGRPFKPYAMGWYRPAPGKERELVAVISSTGSTKYADSVKGRFTISRDNAKNTVYLQMNSLKPEDTAVYYCNAGSLYSDRWVKRKYDYSGQGTQVTVSS | high polyreactivity
10 | QVQLVESGGGLVQAGGSLRLSCAASGRPFYKNTMGWYRQAPGKEREFVATISASGGSTYYADSVKGRFSSSRDNATNTVYLQMNSLKPEDTAVYYCAKRDYAGYAVHIGGDMNYWGQGTQVTVSS | low polyreactivity
11 | QVQLVESGGGLVQAGGSLRLSCAASGRPLGQNVMGWYRQAPGKERELVAASSSNTAGNTYYADSVKGRFTISRDNAKNTVYLQMNSLKAEDTAVYYCAKVDSFEAKLDYWGQGTQVTVSS | low polyreactivity
12 | QVQLVESGGGLVQAGGSLRLSCAASGRPSLLMLWDGIDRRLGKKGSWLPLLTLVTPTTYADSVKGRFTISRDNAKNTVYLQMNSLKPEDTAVYYCNADFRPLDHYVNWYYYWGQGTQVTVSS | low polyreactivity
13 | QVQLVESGGGLVQAGGSLRLSCAASGRSFCSYAMGWYRHAPGKERELVAAITSGGSTNYADSVKGRFTISRDNAKNTVYLQMNSLKPEVTAVYYCAAVEYLRESDYWGQGTQVTVSS | low polyreactivity
14 | QVQLVESGGGLVQAGGSLRLSCAASGRSFCYNAMGWYSQAPGKERELVAGISSSGGTTYYADSVKGRFTISRDKAKNTVYLQMNSLKPEDTAVYYCAKRFSLLSTVRWGRYNYWGQGTQVTVSS | high polyreactivity
15 | QVQLVESGGGLVQAGGSLRLSCAASGRSFDRYAMGWYRQAPGKERELVAGITASGGSTYYADSVKGRFTISRDNAKNTVYLQMNSLKPEDTAVYYCAVVYGYRYYYWGQGTQVTVSS | high polyreactivity
16 | QVQLVESGGGLVQAGGSLRLSCAASGRSFGLYAMGWYRQAPGKERELVAAISYSGGRTYYADSVKRRFTLSRDNAKKTVYLQRNILKPEDTGVYYCNKAWFPYYYYRFDYWGQGTQVTVSS | high polyreactivity
17 | QVQLVESGGGLVQAGGSLRLSCAASGRSFTPYARGWYRQAPGKERELVAAISTIGGTTYADSVKGRFTISRDNAKNTVYLQRNSLKPEDTAVYYCAAERPPYPGNGRDYWGQGTQVTVSS | high polyreactivity
18 | QVQLVESGGGLVQAGGSLRLSCAASGRSFWRNAMGWYRQAPGRERELVAAMSRGGSTNYADSVKGRFTMSRDNAKKTVYLPMNSLKPEDTAVYYCAARYYYRYNYWRQGTQVTVSS | high polyreactivity
19 | QVQLVESGGGLVQAGGSLRLSCAASGRSFYRNAMGWYRQAPGKERELVAAITSSGASTYYADSVKGRFTISRDNAKNTVYLQMNSLKPEDTAVYYCAAKYVYSVGNYRYDYWGQGTQVTVSS | low polyreactivity
20 | QVQLVESGGGLVQAGGSLRLSCAASGRSIRIYAMGWYRQAPGKERELVAAIRWSGGTTYYADSVKGRFTISRDNAKNTVYLQMNSLKPEDTAVYYCAADSTNRYDYWGQGTQVTVSS | high polyreactivity
21 | QVQLVESGGGLVQAGGSLRLSCAASGRSIYRNAMGWYRQAPGKERELVAAISGRGGGTYYADSVKGRFTLSRDNAKNTVYLQMNSVKPEETAVYYCAAERKNKYDYWGQGTQVTVSS | high polyreactivity
22 | QVQLVESGGGLVQAGGSLRLSCAASGRTALRNAMGWYRQAPGKEREFVADIRWSGGSTYYADSVKGRFTISRDKAKNTVYLQMNSQKPEDTAVYYCAAGYVRYPYWYYYWGQGTQVTVSS | high polyreactivity

Row | Sequence | polyreactivity (PSR sort gate)
23 | QVQLVESGGGLVQAGGSLRLSCAASGRTCGKYAMGWYRQAPGKERELVATISRSGGSTYYADSVKGRFTISRDTAKYTVYLQMNSLKPEDTAVYYCNAVTSRYIWPPVLDRYHYWGQGTQVTLSS | high polyreactivity
24 | QVQLVESGGGLVQAGGSLRLSCAASGRTDNTNAMGWYRQAPGKERELVAAITRSGDSTYYADSVKGRFTISRDNAKNTVYLQMNSLKPEDTAVYYCAAYSRTLYPDRYYWGQGTQVTVSS | high polyreactivity
25 | QVQLVESGGGLVQAGGSLRLSCAASGRTDRTNAMGWYRQAPGKERELVAAISTGGGITNYADSVKGRITISRDNAKNTVYLQMNSLKPEDTAVYYCNADIYTWFQIGGYQYDYWGQGTHVTVSS | low polyreactivity
26 | QVQLVESGGGLVQAGGSLRLSCAASGRTFAAYDMGWYRQAPGKERELVAAITSGGSTNYADSVKGRFTISRDNAKNTVYLQMNSLKPEDTAVYYCNARFRKWPQARYGVRYYYWGQGTQVTVSS | high polyreactivity
27 | QVQLVESGGGLVQAGGSLRLSCAASGRTFADFTMGWYRQAPGKERELVAAISFSGGSTYYADSVKGRFTISRDNAKNTVYLHMNSLKPEDTAVYYCAAGHKRRAPRYYDWGQGTQVTVSS | high polyreactivity
28 | QVQLVESGGGLVQAGGSLRLSCAASGRTFADYVMGWYRQAPGKERELVAAITSSGGSTYYADSVKGRFTISRDNAKNTVYLQMNSLKPEDTAVYYCAAQQSPSVDYWGQGTQVTVSS | low polyreactivity
29 | QVQLVESGGGLVQAGGSLRLSCAASGRTFAGYVMGWYRQAPGKERELVAAISTSGGSTYYADSVKGRFTISRDNAKNTVYLQMNSLKPEDTAVYYCNVYLKHRYYNQMDYWGQGTQVTVSS | high polyreactivity
30 | QVQLVESGGGLVQAGGSLRLSCAASGRTFALNVMGWYRQAPGKERELVAAISRSGGSTYYADSVTGRFTISRDNAKNTVYFQMNSLKPEDTAVYYGAAATHYQSYNRRDYWGEGTQVTVSS | high polyreactivity
31 | QVQLVESGGGLVQAGGSLRLSCAASGRTFALYALGRYRQAPGKERELVASISWRGGSTYYADSVKGRFTISRDNANNTVYVQMNRLKPEDTAVSYCAADTGSYGPLIYRLEYWGQGTQVNVSS | low polyreactivity
32 | QVQLVESGGGLVQAGGSLRLSCAASGRTFALYTMGWYRQAPGKVRELVAAINWSGTSTYYADSVKGRFTISRDNAKNTVYLQMNSLKPEDTAVYYCNRDPRKYGKLDYWGQGTQVTVSS | low polyreactivity
33 | QVQLVESGGGLVQAGGSLRLSCAASGRTFANNAMGSYRPAPGKAREWVASISITTSTYYADSVKGRFTISRDNAKITVYLQLNSLKPEDTPVYYCAAYYFIHAGPWEFDYWGQGTQVTVSS | low polyreactivity
34 | QVQLVESGGGLVQAGGSLRLSCAASGRTFANYAMGWYRQAPGKDRELVAAIYSGGNTYYEDSVKGRFTISRDNAKNTVFLQMNRLKPEDTAVYYCNSPWYYRYQRNEYGYWGQGTQVTVSS | high polyreactivity
35 | QVQLVESGGGLVQAGGSLRLSCAASGRTFAPYAMGWYRQAPGKERELVAAISWSGGSTYYADSVKGRFTISRDNAKNSVYLQMNSLKPEDTAVYYCAVVVDYDADRYWGYDYWGQGTQVTVSS | high polyreactivity
36 | QVQLVESGGGLVQAGGSLRLSCAASGRTFAQYAMGWYRQAPGKERELVAAISRSGGSTFYADSVKGRFTISRDNAKNTVYLQMNSLKPEDTAVYYCAAYNRQASLDYWGQGTQVTVSS | high polyreactivity
37 | QVQLVESGGGLVQAGGSLRLSCAASGRTFARNAMGWYRHAPGKERELVAAISGSGGITYYADSVKGRFTISRDNAKNTVYLQMNSLKPEDTAVYYCNAGNNVVVDYDYWGQGTQVTVSS | low polyreactivity
38 | QVQLVESGGGLVQAGGSLRLSCAASGRTFARYAMGWYRPAPGKERELVAAISSSGVSSYYADSVKGRFTISRDNAKNTVYLQMNSLKPDDTAVYYCVTYRNWWYDYWGQGTQVTVSS | high polyreactivity
39 | QVQLVESGGGLVQAGGSLRLSCAASGRTFARYAMGWYRQAPGKERELVAAITRGGSTKYADSVKGRFTISRDNAKNTVYLQMNSLKPEDTAVYYCNKVIVQYTLDRGYWGQGTQVTVSS | high polyreactivity
40 | QVQLVESGGGLVQAGGSLRLSCAASGRTFARYAMGWYRQAPGKERELVAVISRTGSTYYADSVKGRFTISRDNAKNTVYLQMNSLKPEDTAVYYCATVYYYLAYGWSYSDMDYWGQGTQVTVSS | high polyreactivity
41 | QVQLVESGGGLVQAGGSLRLSCAASGRTFARYTMGWYSQAPVKERELVASITRGGSTYYADSVKGRFTISSDNAKNTVYLQMYSLKPEDTAVYYCNAVYIVGGDWGQGTQVTVSS | high polyreactivity
42 | QVQLVESGGGLVQAGGSLRLSCAASGRTFARYVMGWYRPAPGKERELVASISNSGGSTYYADSVKGRFTISRDNAKNTVYLQMNSQKPEDTAVSYCARRYYYWGQGTQVTVSS | high polyreactivity
43 | QVQLVESGGGLVQAGGSLRLSCAASGRTFASNAMGWYRQAPGKERELVAAISYSGGRTYYADSVKGRFTISRDNAKNTVYLQMNSLKPEDTAVYYCAKVGPVYKYDYWGLGTQVTVSS | high polyreactivity
